The source of these data is publication PMC5458252, “Niclosamide is a potential therapeutic for familial adenomatosis polyposis by disrupting Axin-GSK3 interaction” (Oncotarget, 2017).

The target in this experiment is T1, His-tagged recombinant GSK3β (UniProt P49841 1-420).
T1 construct: GSK3β, recombinant; source: sf9 insect cells, recombinant, purified
The experiment is described as follows: SPR; ProteOn XPR36; GSK3β immobilised on a GLH sensor chip; peptides in PBS with Tween 20 and 1% DMSO flowed at 100 μl/min; Langmuir model. The conditions noted are these: both partners purified. (In general: In SPR one partner is held on a chip, and binding of the other changes the refractive index at the surface.)

The Kd is the equilibrium constant for the complex coming apart.

T1 sequence (P49841 whole entry): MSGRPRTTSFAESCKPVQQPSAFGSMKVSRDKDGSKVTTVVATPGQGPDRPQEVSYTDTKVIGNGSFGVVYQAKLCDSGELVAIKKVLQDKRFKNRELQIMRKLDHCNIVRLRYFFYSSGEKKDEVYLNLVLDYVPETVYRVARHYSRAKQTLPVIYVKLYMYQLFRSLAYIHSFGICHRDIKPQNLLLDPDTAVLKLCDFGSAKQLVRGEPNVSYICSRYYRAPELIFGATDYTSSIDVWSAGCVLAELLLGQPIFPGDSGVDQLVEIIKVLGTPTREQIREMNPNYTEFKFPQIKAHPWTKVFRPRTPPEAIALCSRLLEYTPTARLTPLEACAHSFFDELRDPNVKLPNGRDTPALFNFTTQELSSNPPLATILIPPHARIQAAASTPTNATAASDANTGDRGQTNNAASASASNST

B1: 19-mer wild type Axin peptide (peptide)
peptide: VEPQKFAEELIHRLEAVQR
notes: Axin1, residues 383-401; source: synthetic peptide
Turning to B1, the Kd came to 11.9 µM.
